The target of one assay is murine CD1a (mouse). Briefly: flow cytometry on mouse thymocytes, K-S statistics.
The target of a further assay is murine CD1d (mouse) (UniProt P11609). As to the kind of experiment: flow cytometry on mouse thymocytes, K-S statistics.
murine CD1d (mouse), sequence (P11609 22-336): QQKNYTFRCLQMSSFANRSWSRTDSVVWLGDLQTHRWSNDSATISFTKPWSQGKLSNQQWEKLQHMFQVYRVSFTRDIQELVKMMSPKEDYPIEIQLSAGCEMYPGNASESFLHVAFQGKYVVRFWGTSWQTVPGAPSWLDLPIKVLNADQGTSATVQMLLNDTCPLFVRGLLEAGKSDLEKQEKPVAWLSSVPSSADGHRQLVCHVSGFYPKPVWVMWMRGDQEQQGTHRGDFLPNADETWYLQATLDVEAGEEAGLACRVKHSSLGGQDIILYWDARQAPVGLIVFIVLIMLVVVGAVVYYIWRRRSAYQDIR

“Positive control (mouse anti-human CD1a-FITC) (antibody)”: the D-value with murine CD1a (mouse) and in the assay with murine CD1d (mouse) was 0.03 each time.

The values above are taken from patent US20060257397A1.
